Here are results for 6 substances from US20230090311A1, “SELF-ASSEMBLING, SELF-A[…] FOR […] OF VACCINES” (THE UNIVERSITY OF QUEENSLAND, priority 2020, published 2023).

“And” between values parts separate entries of the source, which are not always exact repeats. Equal entries are not always repeated. “Also recorded” adds a separate entry of the source. No end group written: not given here.

A short description of series [1]: Dynamic Light Scattering, Example 5. It is filed as physicochemical. As to conditions: for Polydispersity index (PDI): DLS; for Particle size (nm) DLS: size as measured by intensity, 1-4 1 mg/mL, 5-11 2 mg/mL in PBS. As to the method: Dynamic Light Scattering. Individual compounds 1-4 (1 mg/mL in PBS) and 5-11 (2 mg/mL in PBS) were analyzed using DLS to measure particle size (zeta intensity) and PDI. The samples were treated with ultrasonication for 30 min, then transferred into disposable cuvettes. Measurement were taken at 25° C. and […] light scattering. DLS measurements were taken using a Zetasizer Nano ZP instrument (Malvern Instrument, UK) with Malvern Zetasizer Analyser 6.2 software.

A short description of series [2]: Transmission Electron Microscopy, Example 5. It is filed as physicochemical. As to conditions: negative staining; NP = nanoparticles, CLANs = chain like aggregates of nanoparticles. An excerpt:
Transmission Electron Microscopy. Particle-imaging was captured using a JEM-1010 TEM (HT7700 Exalens, HITACHI Ltd., JEOL Ltd., Japan) operated at 80 kV, using negative staining. Samples of compounds 1-11 (1:2 dilution of samples prepared for DLS analysis) were applied to glow-discharged carbon-coated copper 200-mesh grids (Ted Pella) and negative-stained with 2% phosphotungstic acid.

The subject of the next series is J8. It is filed as in vivo, C57BL/6 mice. As to conditions: first animal study (epitope arrangement); 50 μg s.c., days 0, 21, 28, 35; listed as Conjugate 3.
The nature of series [3]: Characterisation of nanoliposomes by DLS, Example 2. It is filed as physicochemical. As to the method: The particle size, zeta potential and polydispersity of vaccine candidates were measured by dynamic light scattering (DLS) using zetasizer (Nano ZX, Marvern, England). The particle morphology of vaccine candidates was examined using transmission electron microscope (TEM) (HT7700 Exalens, HITACHI Ltd., Japan) after vacuum-drying. Briefly, the sample were diluted in pure distilled water (1:100) and dropped directly on a glow-discharged carbon coated copper grid and then stained with 2% uranyl acetate.

The subject of series [4] is E749-57 (RAHYNIVTF) peptide-specific CD8+ T-cell response. The series can be described thus: IFN-gamma ELISPOT assay. As to conditions: splenocytes ten days after immunisation, restimulated with E7 peptide. It is filed as in vivo, C57BL/6 mice. As to the method:
The mice received single dose of vaccine.
ELISPOT plates were coated with 5 μg mL-1 IFN-g capture antibody (clone) in PBS at 4° C. overnight. The plates were then blocked with RPM/20% FCs at room temperature for 3 hours. Splenocytes from C57/BL/6 mice were harvested from the spleens of naïve and immunised mice. The red blood cells were depleted using red blood cell lysing buffer (0.155 M ammonium chloride in 0.01 M Tris-HCl buffer, Sigma). Splenocytes were then resuspended in RPMI (sigma) supplemented with 20% FACs (100 UmL-1 penicillin and 100 μg mL-1 streptomycin and 50 μM b-mercaptoethanol. The cells were plated at 5×10^5 cells per well in triplicate on ELISPOT plates. E7 peptide (10 μg mL-1) was added alongside 10 ng mL-1 rhIL-2 to a final volume of 200 μL per well. Plates were incubated for 8 hours at 37 C, washed and biotinylated IFN-g detection antibody in 1% BSA added at room temperature, plates were washed again and bound cytokine was visualised with 3-amino-9ethylcarbozole. Spots were counted with an ELISPOT reader.

Another series has as its system TC-1 tumour cells. The series can be described thus: In vivo tumour treatment experiments.
Another series has as its system RBD. As to conditions: 30 μg with CFA, single s.c. immunization; serum day 14.
In another series the test system is B1. As to conditions: 30 μg with CFA, single s.c. immunization.
The test system of a further series is p145. As to conditions: second animal study.

Take “Ac-(Phe-Leu-Ala)5-PADRE-J8 (Ac-FLAFLAFLAFLAFLAAKFVAAWTLKAAAQAEDKVKQSREAKKQVEKALKQLEDKVQ) [Compound 11]”: in [1], the “Polydispersity index (PDI)” value is given as 0.44 ± 0.02 and the “Particle size (nm) DLS” value came out at 255 ± 9 nm. For the same substance, the “Particle size (nm) TEM” value in series [2] was 10-20 nm NP and CLANs.

“Ac-(Leu)15-PADRE-K-J8 (Ac-LLLLLLLLLLLLLLLAKFVAAWTLKAAAKQAEDKVKQSREAKKQVEKALKQLEDKVQ) [Compound 3]”: in the series on J8, the “J8-specific serum IgG antibody titers” value was “significant immunoglobulin G (IgG) titers after the primary immunization; also recorded: higher antibody titers than the previously identified lead vaccine candidate (2)”.

Regarding LLLLLLLLLLQAEPDRAHYNIVTF [Leu-8Qm], in series [3] (DLS), the PDI is 0.6 and 0.6 ± 0.1; the Size is given as 4000 ± 150 nm. For the same substance, the Charge in [3] (zeta potential) was −10 mV and −10 ± 5 mV. Besides, the “IFN-gamma production (ELISPOT)” value in [4] was “significantly produced IFN levels”. Besides, in the series on TC-1 tumour cells (single dose 100 μg on day 7 after TC-1 inoculation), the “survival of tumour-bearing mice” value is “increased survival rate of tumour infected mice”. For the same substance, the “day by which tumours of all mice exceeded 1 cm^3” value in the series on TC-1 tumour cells (single dose on day 7 after TC-1 inoculation) turned out to be 57 days.

Turning to AIHADQLTPTWRVYSTG [Compound B1], in the series on RBD, the “anti-RBD IgG” value is recorded as “did not generate anti-RBD IgG”. In addition, in the series with B1, the “antibody titers against the epitope itself” value is “did not generate significant antibody titers against itself”.

With “Ac-(Ser)15-PADRE-J8 (Ac-SSSSSSSSSSSSSSSAKFVAAWTLKAAAQAEDKVKQSREAKKQVEKALKQLEDKVQ) [Compound 10]”, in series [1], the “Polydispersity index (PDI)” value was 0.31 ± 0.02 and the “Particle size (nm) DLS” value is 240 ± 9 nm. Besides, the “Particle size (nm) TEM” value in series [2] was 10-90 nm NP and CLANs.

In the case of “AKFVAAWTLKAAAQAEDKVKQSREAKKQVEKALKQLEDKVQ [Compound 1]”, the “p145-specific serum IgG antibodies” value in the series with p145 was “less efficient or completely unable to recognize p145”.
